Laboratory results taken from patent publication US20250361295A1.

Assays:
[1] = target: human LILRB4 (human) (UniProt Q8NHJ6); experiment: cell-based or functional assay
[2] = target: human LILRA6 protein (human) (UniProt Q6PI73); experiment: ELISA, LILRA6 protein
[3] = target: human LILRB4 (human) (UniProt Q8NHJ6); experiment: competitive FACS; competition with IO-202
[4] = target: human LILRB4 (human) (UniProt Q8NHJ6); experiment: FACS
[5] = target: hLILRB3 (human) (UniProt O75022); experiment: FACS; isotype control

Isotype (hIgG1) (antibody)
ADCP (%) at 133.3 nM, macrophages and MV-4-11 cells [1]: 2.92%
FcγR stimulation (TNF-α, pg/mL) [1]: 31.6 pg/mL
Fold change (Compared to isotype) [1]: 1 fold
Max cell cytotoxicity (%), ADCC on THP-1 cells [1]: 2.75%
ELISA(OD450) [2]: 0.152 OD450

IO-202
IC50 [3]: 3.74 nM
EC50 [4]: 1.31 nM

Isotype
EC50 [5]: 42 nM
